Assay results published in PMC11588662.

Key:
[1] = biological target: CD33 on human AML cells (Kasumi-1, HL-60, MOLM14) (human (endogenous in Kasumi-1, HL-60, MOLM14)) (UniProt P20138); experiment: flow cytometry on cells; 50 ug CD117 or CD33 Db-FM injected i.v. into NSG mice engrafted with MOLM14-CD117^highGFP^+Luc^+ cells; femora collected after 1 and 6 h; MFI (APC anti-FITC) interpolated on an ex vivo titration of Db-FM on cells of a control mouse
[2] = biological target: CD33 on human AML cells (Kasumi-1, HL-60, MOLM14) (human (endogenous in Kasumi-1, HL-60, MOLM14)) (UniProt P20138); experiment: flow cytometry on cells; MOLM14 GFP^-CD117^midCD33^+ cells stained with 10 nM of either Db-FM or both (10 nM each); fluorescence (MFI)

Sequence of CD33 on human AML cells (Kasumi-1, HL-60, MOLM14) (human (endogenous in Kasumi-1, HL-60, MOLM14)) (P20138 18-364): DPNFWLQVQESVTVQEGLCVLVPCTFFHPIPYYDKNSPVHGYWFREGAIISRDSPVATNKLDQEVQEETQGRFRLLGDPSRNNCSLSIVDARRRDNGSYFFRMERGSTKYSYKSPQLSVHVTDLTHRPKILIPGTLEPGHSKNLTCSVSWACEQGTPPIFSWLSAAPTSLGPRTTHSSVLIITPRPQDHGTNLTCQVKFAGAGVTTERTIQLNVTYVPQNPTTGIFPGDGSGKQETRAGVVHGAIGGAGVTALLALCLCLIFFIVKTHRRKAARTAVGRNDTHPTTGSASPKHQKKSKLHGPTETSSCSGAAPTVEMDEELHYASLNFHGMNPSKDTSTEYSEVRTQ

With “CD33 Db-FM (fluorescein-maleimide-labelled anti-CD33 diabody, clone SGN-33)” the interpolated on-tumor Db-FM concentration 1 h after injection [1] was 0.99 nM, the interpolated on-tumor Db-FM concentration 6 h after injection [1] was 0.22 nM and the MFI [2] was 942.
